Measured values from US20140274782A1, “AFFINITY REAGENTS AND METHODS FOR DETECTION, PURIFICATION, AND PROTEOMIC ANALYSIS OF METHYLATED PROTEINS” (The Board of Trustees of the Leland Stanford Junior …, priority 2013, published 2014).

T1: G9a and GLP (Homo sapiens, UniProt Q96KQ7+Q9H9B1)
T1 sequence (Q96KQ7 2-1210 limits assumed): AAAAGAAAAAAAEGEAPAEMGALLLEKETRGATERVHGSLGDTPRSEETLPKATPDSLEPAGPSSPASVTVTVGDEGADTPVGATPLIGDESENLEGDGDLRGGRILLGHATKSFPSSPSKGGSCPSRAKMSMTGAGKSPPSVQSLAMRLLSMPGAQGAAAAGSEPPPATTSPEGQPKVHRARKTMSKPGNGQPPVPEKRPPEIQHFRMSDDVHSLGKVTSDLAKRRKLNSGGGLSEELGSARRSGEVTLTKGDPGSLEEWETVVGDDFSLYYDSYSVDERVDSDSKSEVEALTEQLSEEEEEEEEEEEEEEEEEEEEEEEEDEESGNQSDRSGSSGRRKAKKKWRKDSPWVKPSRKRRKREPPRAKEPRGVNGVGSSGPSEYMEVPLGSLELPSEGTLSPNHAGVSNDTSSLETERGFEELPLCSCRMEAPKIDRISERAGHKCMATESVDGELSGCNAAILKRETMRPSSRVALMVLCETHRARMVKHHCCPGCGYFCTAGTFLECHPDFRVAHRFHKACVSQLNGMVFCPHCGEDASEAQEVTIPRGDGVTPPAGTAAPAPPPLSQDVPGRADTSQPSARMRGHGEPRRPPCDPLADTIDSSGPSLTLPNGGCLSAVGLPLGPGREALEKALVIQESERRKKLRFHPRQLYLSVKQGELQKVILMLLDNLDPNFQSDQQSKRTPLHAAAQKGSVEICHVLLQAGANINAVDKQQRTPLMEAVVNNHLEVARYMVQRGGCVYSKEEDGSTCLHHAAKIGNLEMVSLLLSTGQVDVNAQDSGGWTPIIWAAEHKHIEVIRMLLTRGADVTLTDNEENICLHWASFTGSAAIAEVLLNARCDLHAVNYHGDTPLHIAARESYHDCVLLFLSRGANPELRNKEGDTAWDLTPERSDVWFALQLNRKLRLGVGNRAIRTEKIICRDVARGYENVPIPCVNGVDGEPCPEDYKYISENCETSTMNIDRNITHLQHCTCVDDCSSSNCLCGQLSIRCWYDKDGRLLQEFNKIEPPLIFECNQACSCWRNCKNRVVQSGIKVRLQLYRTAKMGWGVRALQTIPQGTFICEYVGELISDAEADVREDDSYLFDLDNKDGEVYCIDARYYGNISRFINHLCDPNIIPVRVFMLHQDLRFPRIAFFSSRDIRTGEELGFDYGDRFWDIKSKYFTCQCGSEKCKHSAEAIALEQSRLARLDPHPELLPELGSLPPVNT
T1 sequence (Q9H9B1 2-1298 limits assumed): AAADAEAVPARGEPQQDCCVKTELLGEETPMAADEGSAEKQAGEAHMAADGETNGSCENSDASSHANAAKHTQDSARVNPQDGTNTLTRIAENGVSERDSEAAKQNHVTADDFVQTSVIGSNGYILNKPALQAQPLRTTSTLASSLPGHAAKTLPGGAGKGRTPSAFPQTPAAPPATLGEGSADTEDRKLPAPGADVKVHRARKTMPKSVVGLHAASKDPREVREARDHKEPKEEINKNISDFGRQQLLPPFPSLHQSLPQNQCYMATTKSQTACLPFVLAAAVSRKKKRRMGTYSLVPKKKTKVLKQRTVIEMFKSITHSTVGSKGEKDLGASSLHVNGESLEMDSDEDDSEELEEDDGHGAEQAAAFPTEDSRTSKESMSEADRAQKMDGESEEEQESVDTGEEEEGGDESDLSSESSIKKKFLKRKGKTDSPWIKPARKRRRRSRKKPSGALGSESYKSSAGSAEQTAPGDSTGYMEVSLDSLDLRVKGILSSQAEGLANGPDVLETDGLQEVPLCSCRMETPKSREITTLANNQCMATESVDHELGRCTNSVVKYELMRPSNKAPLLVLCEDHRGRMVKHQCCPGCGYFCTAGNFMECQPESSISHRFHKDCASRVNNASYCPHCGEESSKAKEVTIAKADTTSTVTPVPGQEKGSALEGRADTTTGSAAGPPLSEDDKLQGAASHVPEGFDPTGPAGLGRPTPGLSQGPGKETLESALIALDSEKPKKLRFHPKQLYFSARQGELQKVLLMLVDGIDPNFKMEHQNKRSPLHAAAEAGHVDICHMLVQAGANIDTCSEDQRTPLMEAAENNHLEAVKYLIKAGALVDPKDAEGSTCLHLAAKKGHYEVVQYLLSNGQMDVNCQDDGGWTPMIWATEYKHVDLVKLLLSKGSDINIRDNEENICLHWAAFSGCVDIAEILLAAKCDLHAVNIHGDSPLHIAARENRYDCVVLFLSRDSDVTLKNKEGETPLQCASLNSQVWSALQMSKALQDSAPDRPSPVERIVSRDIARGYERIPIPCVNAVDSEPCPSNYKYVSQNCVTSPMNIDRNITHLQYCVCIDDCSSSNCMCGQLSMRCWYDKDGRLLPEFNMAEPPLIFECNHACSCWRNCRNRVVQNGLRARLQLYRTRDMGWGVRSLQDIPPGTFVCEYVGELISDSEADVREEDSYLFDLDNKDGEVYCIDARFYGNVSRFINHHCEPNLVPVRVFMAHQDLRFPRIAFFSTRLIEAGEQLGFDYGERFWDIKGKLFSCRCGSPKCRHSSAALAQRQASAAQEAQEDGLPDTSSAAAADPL

B1: SEC23A (protein, UniProt Q15436 2-765, looked up)
Protein transport protein …: TTYLEFIQQNEERDGVRFSWNVWPSSRLEATRMVVPVAALFTPLKERPDLPPIQYEPVLCSRTTCRAVLNPLCQVDYRAKLWACNFCYQRNQFPPSYAGISELNQPAELLPQFSSIEYVVLRGPQMPLIFLYVVDTCMEDEDLQALKESMQMSLSLLPPTALVGLITFGRMVQVHELGCEGISKSYVFRGTKDLSAKQLQEMLGLSKVPLTQATRGPQVQQPPPSNRFLQPVQKIDMNLTDLLGELQRDPWPVPQGKRPLRSSGVALSIAVGLLECTFPNTGARIMMFIGGPATQGPGMVVGDELKTPIRSWHDIDKDNAKYVKKGTKHFEALANRAATTGHVIDIYACALDQTGLLEMKCCPNLTGGYMVMGDSFNTSLFKQTFQRVFTKDMHGQFKMGFGGTLEIKTSREIKISGAIGPCVSLNSKGPCVSENEIGTGGTCQWKICGLSPTTTLAIYFEVVNQHNAPIPQGGRGAIQFVTQYQHSSGQRRIRVTTIARNWADAQTQIQNIAASFDQEAAAILMARLAIYRAETEEGPDVLRWLDRQLIRLCQKFGEYHKDDPSSFRFSETFSLYPQFMFHLRRSSFLQVFNNSPDESSYYRHHFMRQDLTQSLIMIQPILYAYSFSGPPEPVLLDSSSILADRILLMDTFFQILIYHGETIAQWRKSGYQDMPEYENFRHLLQAPVDDAQEILHSRFPMPRYIDTEHGGSQARFLLSKVNPSQTHNNMYAWGQESGAPILTDDVSLQVFMDHLKKLAVSSAA
B2: MCM5 (protein, UniProt P33992 2-734, looked up)
DNA replication licensing …: SGFDDPGIFYSDSFGGDAQADEGQARKSQLQRRFKEFLRQYRVGTDRTGFTFKYRDELKRHYNLGEYWIEVEMEDLASFDEDLADYLYKQPAEHLQLLEEAAKEVADEVTRPRPSGEEVLQDIQVMLKSDASPSSIRSLKSDMMSHLVKIPGIIIAASAVRAKATRISIQCRSCRNTLTNIAMRPGLEGYALPRKCNTDQAGRPKCPLDPYFIMPDKCKCVDFQTLKLQELPDAVPHGEMPRHMQLYCDRYLCDKVVPGNRVTIMGIYSIKKFGLTTSRGRDRVGVGIRSSYIRVLGIQVDTDGSGRSFAGAVSPQEEEEFRRLAALPNVYEVISKSIAPSIFGGTDMKKAIACLLFGGSRKRLPDGLTRRGDINLLMLGDPGTAKSQLLKFVEKCSPIGVYTSGKGSSAAGLTASVMRDPSSRNFIMEGGAMVLADGGVVCIDEFDKMREDDRVAIHEAMEQQTISIAKAGITTTLNSRCSVLAAANSVFGRWDETKGEDNIDFMPTILSRFDMIFIVKDEHNEERDVMLAKHVITLHVSALTQTQAVEGEIDLAKLKKFIAYCRVKCGPRLSAEAAEKLKNRYIIMRSGARQHERDSDRRSSIPITVRQLEAIVRIAEALSKMKLQPFATEADVEEALRLFQVSTLDAALSGTLSGVEGFTSQEDQEMLSRIEKQLKRRFAIGSQVSEHSIIKDFTKQKYPEHAIHKVLQLMLRRGEIQHRMQRKVLYRLK
B3: PRMT3 (protein, UniProt O60678 2-531, looked up)
Protein arginine …: CSLASGATGGRGAVENEEDLPELSDSGDEAAWEDEDDADLPHGKQQTPCLFCNRLFTSAEETFSHCKSEHQFNIDSMVHKHGLEFYGYIKLINFIRLKNPTVEYMNSIYNPVPWEKEEYLKPVLEDDLLLQFDVEDLYEPVSVPFSYPNGLSENTSVVEKLKHMEARALSAEAALARAREDLQKMKQFAQDFVMHTDVRTCSSSTSVIADLQEDEDGVYFSSYGHYGIHEEMLKDKIRTESYRDFIYQNPHIFKDKVVLDVGCGTGILSMFAAKAGAKKVLGVDQSEILYQAMDIIRLNKLEDTITLIKGKIEEVHLPVEKVDVIISEWMGYFLLFESMLDSVLYAKNKYLAKGGSVYPDICTISLVAVSDVNKHADRIAFWDDVYGFKMSCMKKAVIPEAVVEVLDPKTLISEPCGIKHIDCHTTSISDLEFSSDFTLKITRTSMCTAIAGYFDIYFEKNCHNRVVFSTGPQSTKTHWKQTVFLLEKPFSVKAGEALKGKVTVHKNKKDPRSLTVTLTLNNSTQTYGLQ
B4: GAPDHS (protein, UniProt O14556 1-408, looked up)
Glyceraldehyde-3-phosphate …: MSKRDIVLTNVTVVQLLRQPCPVTRAPPPPEPKAEVEPQPQPEPTPVREEIKPPPPPLPPHPATPPPKMVSVARELTVGINGFGRIGRLVLRACMEKGVKVVAVNDPFIDPEYMVYMFKYDSTHGRYKGSVEFRNGQLVVDNHEISVYQCKEPKQIPWRAVGSPYVVESTGVYLSIQAASDHISAGAQRVVISAPSPDAPMFVMGVNENDYNPGSMNIVSNASCTTNCLAPLAKVIHERFGIVEGLMTTVHSYTATQKTVDGPSRKAWRDGRGAHQNIIPASTGAAKAVTKVIPELKGKLTGMAFRVPTPDVSVVDLTCRLAQPAPYSAIKEAVKAAAKGPMAGILAYTEDEVVSTDFLGDTHSSIFDAKAGIALNDNFVKLISWYDNEYGYSHRVVDLLRYMFSRDK

Experiments:
3×MBT domain of L3MBTL1 = assay: Triple SILAC pull-down, 3xMBT/3xMBTD355N ratio (cytoplasmic, nuclear and chromatin fractions of 293T cells); assay type: binding, human; details: for 3xMBT/D355N UNC Heavy: experiment with UNC0638 in heavy SILAC media; for 3xMBT/D355N UNC Light: experiment with UNC0638 in light SILAC media;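 on all read-outs here: proteins quantified with MaxQuant, requiring at least two unique peptides and quantification in both label directions, normalized to the mean of proteins from a digested loading control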
G9a and GLP = target: T1, G9a and GLP; assay: Triple SILAC pull-down after UNC0638 treatment of 293T cells, DMSO/UNC0638 ratio of protein captured by 3×MBT; assay type: cell-based; set-up: cells were treated for 24 hours with UNC0638 at 2.5 μM or DMSO vehicle control; endogenous in cells; host or cells: HEK 293T; details: for Relative to UNC0638 UNC Heavy: UNC0638 in heavy SILAC media; for Relative to UNC0638 UNC Light: UNC0638 in light SILAC media; for Relative to UNC0638 Average: average of UNC Light and UNC Heavy experiments;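 on all read-outs here: mass spectrometry (Q-Exactive) SILAC quantitation, DMSO/UNC0638 ratio computed after subtracting 3×MBTD355N mutant pull-down background, only proteins with at least twofold 3×MBT over mutant signal considered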
[1] = SILAC ratio 3xMBT vs 3xMBTD355N pull-down, 293T cells, all values in log base 2
[2] = SILAC ratio DMSO relative to UNC0638, pull-down with 3xMBT, all values in log base 2
[3] = SILAC ratio, pull-down 3xMBT vs 3xMBTD355N
[4] = SILAC ratio DMSO/UNC0638 of protein pulled down with 3xMBT

Row | Molecule | 3xMBT/D355N UNC Heavy (3×MBT domain of L3MBTL1; [1]) | 3xMBT/D355N UNC Light (3×MBT domain of L3MBTL1; [1]) | Relative to UNC0638 UNC Heavy (G9a and GLP; [2]) | Relative to UNC0638 UNC Light (G9a and GLP; [2]) | Relative to UNC0638 Average (G9a and GLP; all values in log base 2) | 3xMBT/D355N UNC Heavy (3×MBT domain of L3MBTL1; [3]) | 3xMBT/D355N UNC Light (3×MBT domain of L3MBTL1; [3]) | Relative to UNC0638 UNC Heavy (G9a and GLP; [4]) | Relative to UNC0638 UNC Light (G9a and GLP; [4]) | Relative to UNC0638 Average (G9a and GLP)
1 | B1 | 2.56 log base 2 | 3.17 log base 2 | 0.22 log base 2 | −0.01 log base 2 | 0.11 log base 2 | – | – | – | – | –
2 | B2 | 2.23 log base 2 | 2.79 log base 2 | 0.18 log base 2 | 0.03 log base 2 | 0.10 log base 2 | – | – | – | – | –
3 | B3 | 1.71 log base 2 | 2.05 log base 2 | 0.13 log base 2 | 0.07 log base 2 | 0.10 log base 2 | – | – | – | – | –
4 | B4 | – | – | – | – | – | 3.31 log base 2 | 1.73 log base 2 | 3.21 log base 2 | −2.20 log base 2 | 0.50 log base 2
